Values belong to the binder of their own block, whether it stands above or below them.
What was measured:
[1] = molecular target: the molecule itself; experiment: multiple angle light scattering
[2] = molecular target: DDA1 (human, UniProt Q9BW61 1-102); experiment: cryo-EM structure
[3] = molecular target: Full-length DDB1-DET1-DDA1 complex co-expressed with Ube2e2 (human, UniProt Q7L5Y6;Q16531;Q9BW61); experiment: SEC
Chain of Full-length DDB1-DET1-DDA1 complex co-expressed with Ube2e2 (Q7L5Y6 whole entry, one chain of several): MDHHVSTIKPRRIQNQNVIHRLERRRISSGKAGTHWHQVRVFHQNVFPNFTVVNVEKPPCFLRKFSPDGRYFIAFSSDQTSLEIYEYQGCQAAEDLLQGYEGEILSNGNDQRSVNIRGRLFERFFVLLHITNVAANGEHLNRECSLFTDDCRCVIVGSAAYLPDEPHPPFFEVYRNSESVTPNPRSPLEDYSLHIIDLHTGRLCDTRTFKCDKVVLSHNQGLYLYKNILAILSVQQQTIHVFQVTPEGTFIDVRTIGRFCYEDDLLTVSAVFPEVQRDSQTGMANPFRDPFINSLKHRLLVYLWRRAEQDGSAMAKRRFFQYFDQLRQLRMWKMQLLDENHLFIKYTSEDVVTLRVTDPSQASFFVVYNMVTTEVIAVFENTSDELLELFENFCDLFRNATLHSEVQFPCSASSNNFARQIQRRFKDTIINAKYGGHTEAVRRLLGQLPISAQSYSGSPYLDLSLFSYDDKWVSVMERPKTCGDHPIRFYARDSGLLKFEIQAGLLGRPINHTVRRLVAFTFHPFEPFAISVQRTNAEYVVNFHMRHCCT

B1: COP1 RING domain (residues 126 to 208) (domain or fragment)
chain: SYEDKSNDFVCPICFDMIEEAYMTKCGHSFCYKCIHQSLEDNNRCPKCNYVVDNIDHLYPNFLVNELILKQKQRFEEKRFKLD
- stoichiometry N [1]: 2

- binding result [2]: binds
B2: DDB1(ΔBPB) (natural protein)
chain: MSYNYVVTAQKPTAVNGCVTGHFTSAEDLNLLIAKNTRLEIYVVTAEGLRPVKEVGMYGKIAVMELFRPKGESKDLLFILTAKYNACILEYKQSGESIDIITRAHGNVQDRIGRPSETGIIGIIDPECRMIGLRLYDGLFKVIPLDRDNKELKAFNIRLEELHVIDVKFLYGCQAPTICFVYQDPQGRHVKTYEVSLREKEFNKGPWKQENVEAEASMVIAVPEPFGGAIIIGQESITYHNGDKYLAIAPPIIKQSTIVCHNRVDPNGSRYLLGDMEGRLFMLLLEKEEQMDGTVTLKDLRVELLGETSIAECLTYLDNGVVFVGSRLGDSQLVKLNVDSNEQGSYVVAMETFTNLGPIVDMCVVDLERQGQGQLVTCSGAFKEGSLRIIRNGIGIQKLHIRTVPLYESPRKICYQEVSQCFGVLSSRIEVQDTSGGTTALRPSASTQALSSSVSSSKLFSSSTAPHETSFGEEVEVHNLLIIDQHTFEVLHAHQFLQNEYALSLVSCKLGKDPNTYFIVGTAMVYPEEAEPKQGRIVVFQYSDGKLQTVAEKEVKGAVYSMVEFNGKLLASINSTVRLYEWTTEKELRTECNHYNNIMALYLKTKGDFILVGDLMRSVLLLAYKPMEGNFEEIARDFNPNWMSAVEILDDDNFLGAENAFNLFVCQKDSAATTDEERQHLQEVGLFHLGEFVNVFCHGSLVMQNLGETSTPTQGSVLFGTVNGMIGLVTSLSESWYNLLLDMQNRLNKVIKSVGKIEHSFWRSFHTERKTEPATGFIDGDLIESFLDISRPKMQEVVANLQYDDGSGMKREATADDLIKVVEELTRIH

- binding result [3]: binds
B3: Full-length Ube2e2 co-expressed with the DDD complex (enzyme)
chain: MSTEAQRVDDSPSTSGGSSDGDQRESVQQEPEREQVQPKKKEGKISSKTAAKLSTSAKRIQKELAEITLDPPPNCSAGPKGDNIYEWRSTILGPPGSVYEGGVFFLDITFSPDYPFKPPKVTFRTRIYHCNINSQGVICLDILKDNWSPALTISKVLLSICSLLTDCNPADPLVGSIATQYMTNRAEHDRMARQWTKRYAT
